Values belong to the molecule of their own block, whether it stands above or below them.
Assays:
[1] = biological target: T1, DesKCSTAB:DesR-REC complex (phosphatase complex) (Bacillus subtilis, UniProt O34757, S150I/S153L/R157I); assay: X-ray crystallography; settings: Mg2+, BeF3-; pH 8.5; CA (ATP-binding) domain; 2.79 A
T1 construct: gene desK; DesK cytoplasmic portion with DesR receiver domain; His-tag and TEV site on each, co-expressed in E. coli BL21(DE3); 2:2 complex; with Transcriptional regulatory protein DesR

CheY (Escherichia coli) = CheY (Escherichia coli) (UniProt P0AE67); settings: cited from earlier work
[2] = biological target: T2, DesKC_(H188V), mutant of the cytoplasmic portion of DesK trapped in the phosphatase state (B. subtilis, UniProt O34757 154-370, H188V); assay: ITC; VP-ITC; DesR-REC (350-400 µM) injected into the cell with DesKC variants (25-30 µM); 15°C; 20 mM Tris.HCl pH 8, 0.3 M NaCl, 10 mM MgCl2, 0.5 mM AMP-PNP; duplicate; fitted to a two independent sequential site model; parameters: unit not given here; settings: both partners purified
T2 construct: DesK, histidine kinase of Bacillus subtilis; cytoplasmic portion (DesKC); also called DesK_(H188V)
T2 sequence: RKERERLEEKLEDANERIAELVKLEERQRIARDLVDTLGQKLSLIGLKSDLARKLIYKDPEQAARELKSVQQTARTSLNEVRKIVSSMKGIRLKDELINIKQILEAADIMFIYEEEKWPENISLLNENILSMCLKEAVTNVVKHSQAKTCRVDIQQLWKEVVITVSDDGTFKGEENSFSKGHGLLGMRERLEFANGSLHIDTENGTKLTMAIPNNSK

[3] = biological target: T3, DesKC_(H188E), free protein used in ITC (B. subtilis, UniProt O34757 154-370, H188E); assay: as above; parameters: unit not given here; settings: both partners purified
T3 construct: DesK, histidine kinase of Bacillus subtilis; cytoplasmic portion (DesKC); Kept apart from m2 because it stood alone in the calorimeter cell, whereas m2 was co-expressed and purified with DesR-REC; It may be the same polypeptide as m2
T3 sequence: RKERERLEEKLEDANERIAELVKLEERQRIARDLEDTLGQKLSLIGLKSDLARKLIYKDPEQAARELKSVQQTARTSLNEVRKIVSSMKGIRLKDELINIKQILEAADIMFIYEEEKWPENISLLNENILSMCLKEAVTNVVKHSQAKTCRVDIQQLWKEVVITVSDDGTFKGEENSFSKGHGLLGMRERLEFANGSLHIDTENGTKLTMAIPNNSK

[4] = biological target: DesKC_(STAB), phosphatase-constitutive mutant of the cytoplasmic portion of the histidine kinase DesK (B. subtilis); assay: SEC-SAXS; purified DesK-DesR complexes at 10 mg/mL in 50 mM Tris.HCl pH 8.0, 300 mM NaCl, Superdex 75 5/150 GL, beamline SWING; theoretical curves of crystal models fitted with CRYSOL, mixtures with OLIGOMER
[5] = biological target: T2, DesKC_(H188V), mutant of the …; assay: ITC; VP-ITC; DesR-REC (350-400 µM) injected into the cell with DesKC variants (25-30 µM); 15°C; 20 mM Tris.HCl pH 8, 0.3 M NaCl, 10 mM MgCl2, 0.5 mM AMP-PNP; duplicate; fitted to a two independent sequential site model; settings: both partners purified
[6] = biological target: T3, DesKC_(H188E), free protein used in ITC; assay: as above; settings: both partners purified

T1 sequence (O34757 150-370 S150I/S153L/R157I, one chain of several): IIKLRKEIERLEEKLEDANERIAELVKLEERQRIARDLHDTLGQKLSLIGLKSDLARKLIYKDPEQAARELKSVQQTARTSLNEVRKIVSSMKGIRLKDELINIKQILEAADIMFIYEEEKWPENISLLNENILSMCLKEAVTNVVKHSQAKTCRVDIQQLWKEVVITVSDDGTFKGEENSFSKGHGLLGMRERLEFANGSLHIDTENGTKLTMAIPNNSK
CheY (Escherichia coli), sequence (P0AE67 2-129): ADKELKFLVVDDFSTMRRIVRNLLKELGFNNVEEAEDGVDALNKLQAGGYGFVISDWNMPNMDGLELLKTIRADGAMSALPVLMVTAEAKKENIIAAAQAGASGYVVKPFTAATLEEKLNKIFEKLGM

Molecule: Nc1ncnc2c1ncn2[C@@H]1O[C@H](COP(=O)(O)OP(=O)(O)CP(=O)(O)O)[C@@H](O)[C@H]1O [AMP-PCP]
X-ray crystallography [1]: one AMP-PCP (ATP analogue) moiety is bound to each CA domain

Molecule: CheA (from UniProt P07363)
Kd (CheY (Escherichia coli)): 30 nM

dH, first printed row (two sequential sites fit) [2]: 15000
dH, second printed row (two sequential sites fit) [2]: 14000
dH, first printed row (two sequential sites fit) [3]: 22000
dH, second printed row (two sequential sites fit) [3]: 21000
stoichiometry N (RR monomers per HK dimer) [4]: 2
stoichiometry N [5]: 2 RR monomers per HK dimer
stoichiometry N [6]: 1 RR monomers per HK dimer
B1: DesR-REC, free protein used as ligand in ITC (domain or fragment, B. subtilis)
chain: MISIFIAEDQQMLLGALGSLLNLEDDMEVVGKGTTGQDAVDFVKKRQPDVCIMDIEMPGKTGLEAAEELKDTGCKIIILTTFARPGYFQRAIKAGVKGYLLKDSPSEELANAIRSVMNGKRIYAPELMEDLYSEA
notes: DesR, response regulator of Bacillus subtilis, REC domain; Probably from pQE80-DesR-REC in E. coli TOP10F', the plasmid and host that the methods name for functional assays (Trajtenberg et al., 2014)
